Data from the supplement of paper PMC9112550, “Optimization of the antimicrobial peptide Bac7 by deep mutational scanning” (BMC Biology, 2022).

test system: Escherichia coli TOP10; assay: shrunken log2 fold change of peptide-encoding DNA abundance (4.5 h post-induction vs induction); higher = less antimicrobial activity (less host growth inhibition); settings: time post-induction: 4.5 h; library: site-saturation at positions 5, 18, 19, 20
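Note: peptides expressed intracellularly from a pBAD plasmid library in pooled LB shake-flask culture, induced with 0.3% L-arabinose, DNA abundance read by NGS, three biological replicates, DESeq2 with apeglm shrinkage.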

Sequence	shrunken log2 fold change
RRIRRRPPRLPRPRPRPLLVPRP	0.329
RRIRQRPPRLPRPRPRPGHIPRP	-0.0594
RRIRVRPPRLPRPRPRPEQHPRP	0.262
RRIRPRPPRLPRPRPRPSRYPRP	-0.163
RRIRDRPPRLPRPRPRPKGAPRP	0.368
RRIRRRPPRLPRPRPRPAWVPRP	1.75
RRIRHRPPRLPRPRPRPDWAPRP	-0.0995
RRIRDRPPRLPRPRPRPWTRPRP	-0.231
RRIRCRPPRLPRPRPRPEKPPRP	0.118
RRIRIRPPRLPRPRPRPIPWPRP	-0.533
RRIRPRPPRLPRPRPRPASYPRP	-0.212
RRIRSRPPRLPRPRPRPYYLPRP	-0.7
RRIRRRPPRLPRPRPRPHIWPRP	-0.0694
RRIRQRPPRLPRPRPRPGMLPRP	0.105
RRIRDRPPRLPRPRPRPALDPRP	1.05
RRIRSRPPRLPRPRPRPHLRPRP	0.092
RRIRDRPPRLPRPRPRPWLLPRP	0.0241
RRIRPRPPRLPRPRPRPQAHPRP	-0.243
RRIRIRPPRLPRPRPRPHSWPRP	-0.327
RRIRSRPPRLPRPRPRPSQQPRP	0.0577
RRIRNRPPRLPRPRPRPPTGPRP	0.154
RRIRFRPPRLPRPRPRPDGPPRP	0.0689
RRIRGRPPRLPRPRPRPAGFPRP	0.775
RRIRSRPPRLPRPRPRPFMCPRP	-0.255
RRIRVRPPRLPRPRPRPSGDPRP	-0.251

Sequence	shrunken log2 fold change
RRIRTRPPRLPRPRPRPCQKPRP	0.0124
RRIRDRPPRLPRPRPRPVKGPRP	0.0617
RRIRGRPPRLPRPRPRPEDYPRP	0.555
RRIRMRPPRLPRPRPRPLWWPRP	0.795
RRIRVRPPRLPRPRPRPFNLPRP	-0.103
RRIRVRPPRLPRPRPRPRKMPRP	0.299
RRIRARPPRLPRPRPRPLGIPRP	-0.12
RRIRTRPPRLPRPRPRPQIGPRP	-0.0138
RRIRMRPPRLPRPRPRPHPMPRP	2.74
RRIRGRPPRLPRPRPRPDYMPRP	-0.0973
RRIRNRPPRLPRPRPRPSMDPRP	0.00334
RRIRKRPPRLPRPRPRPHTIPRP	0.00577
RRIRIRPPRLPRPRPRPDTNPRP	-0.73
RRIRPRPPRLPRPRPRPSHDPRP	-0.339
RRIRPRPPRLPRPRPRPQYHPRP	-0.68
RRIRSRPPRLPRPRPRPTVEPRP	0.119
RRIRWRPPRLPRPRPRPMNRPRP	-0.00448
RRIRARPPRLPRPRPRPRGHPRP	0.644
RRIRQRPPRLPRPRPRPVCTPRP	0.0864
RRIRPRPPRLPRPRPRPFYSPRP	-0.161
RRIRMRPPRLPRPRPRPARNPRP	-0.0385
RRIRRRPPRLPRPRPRPEIYPRP	0.0166
RRIRRRPPRLPRPRPRPIDKPRP	-0.0465
RRIRYRPPRLPRPRPRPVVRPRP	-0.203
RRIRYRPPRLPRPRPRPKHHPRP	-0.986
